{
  "source": "paper PMC5829272",
  "proteins": {"B1": {"name": "Dentin matrix protein 1 (DMP1): S89G-DMP1 (protein)", "parent chain": "MKTVILLVFLWGLSCALPVARYHNTESESSEERTGDLAGSPPPPTNSESSEESQASPEGQANSDHTDSSESGEELGYDRGQYRPAGGLSKSTGTGADKEDDEDDSGDDTFGDEDNDLGPEEGQWGGPSKLDSDEDSTDTTQSSEDSTSQENSAQDTPSDSKDHDSEDEADSRPEAGDSTQDSESEEQRVGGGSEGESSHGDGSEFDDEGMQSDDPESTRSDRGHARMSSAGIRSEESKGDHEPTSTQDSDDSQSVEFSSRKSFRRSHVSEEDYRGELTDSNSRETQSDSTEDTASKEESRSESQEDTAESQSQEDSPEGQDPSSESSEEAGEPSQESSSESQEGVTSESRGDNPDNTSQAGDQEDSESSEEDSLNTFSSSESQSTEEQADSESNESLSLSEESQESAQDGDSSSQEGLQSQSASTESRSQESQSEQDSRSEEDSDSQDSSRSKEESNSTGSASSSEEDIRPKNMEADSRKLIVDAYHNKPIGDQDDNDCQDGY"}},
  "key": {"[1]": {"assay": "immunofluorescence, retrosplenial granular cortex", "conditions": "glycan lost; control: wild type mice"}, "[2]": {"assay": "DMP1 immunofluorescence intensity in brain", "conditions": "glycan lost; control: wild type mice"}, "[3]": {"assay": "intraperitoneal Evans blue, leakage area in brain sections", "conditions": "glycan lost; control: wild type mice"}, "[4]": {"assay": "qPCR, Western blot, immunofluorescence", "conditions": "glycan lost; control: wild type"}, "[5]": {"assay": "transmission electron microscopy, retrosplenial granular cortex", "conditions": "glycan lost; control: wild type mice"}, "cultured NSCs in vitro": {"assay": "cultured NSCs in vitro", "conditions": "glycan lost; control: wild type NSCs"}, "cultured NSCs": {"assay": "cultured NSCs", "conditions": "glycan lost; control: wild type NSCs"}, "[6]": {"assay": "GFAP/lectin immunofluorescence in cortex", "conditions": "glycan lost; control: wild type mice"}, "[7]": {"assay": "spontaneous differentiation after EGF/bFGF withdrawal", "conditions": "glycan lost; control: wild type NSCs"}, "[8]": {"assay": "RNA sequencing of primary astrocyte cultures", "conditions": "glycan lost; control: wild type astrocytes"}, "RNA sequencing of NSCs": {"assay": "RNA sequencing of NSCs", "conditions": "glycan lost; control: wild type NSCs"}},
  "data": [
    {"protein": "B1", "values": [
      {"measurement": "other: laminin and ZO1 expression at vasculature", "setting": "[1]", "value": "decreases"},
      {"measurement": "expression_or_secretion", "setting": "[2]", "value": "no change"},
      {"measurement": "other: blood-brain barrier integrity", "setting": "[3]", "value": "decreases"},
      {"measurement": "other: AQP4 expression in astrocytes and brain", "setting": "[4]", "value": "decreases"},
      {"measurement": "other: astrocyte cell-cell adhesion", "setting": "[5]", "value": "decreases"},
      {"measurement": "other: neural stem cell proliferation", "setting": "cultured NSCs in vitro", "value": "increases"},
      {"measurement": "other: neural stem cell apoptosis", "setting": "cultured NSCs", "value": "no change"},
      {"measurement": "other: astrocyte end feet coverage of blood vessels", "setting": "[6]", "value": "decreases"},
      {"measurement": "other: neural stem cell differentiation", "setting": "[7]", "value": "no change"},
      {"measurement": "other: astrocyte transcriptome", "setting": "[8]", "value": "changes"},
      {"measurement": "other: neural stem cell transcriptome", "setting": "RNA sequencing of NSCs", "value": "changes"}
    ]}
  ]
}
